Values belong to the binder of their own block, whether it stands above or below them. Starred links: 1 amine or outer side, 2 acyl side, 3 side chain; linkers in the order of their positions; H or OH if unused. Positions of bridges follow the written chain, without caps; N, C: chain ends. No end group written: not given here. *: point of attachment. Suc = O=C(CCC(=O)[*:2])[*:1]; Cbz = O=C(OCc1ccccc1)*; For = O=C*
Legend:
[1] = target: recombinant human aminopeptidase N (hAPN) (human) (UniProt P15144); experiment: enzyme inhibition assay (competition with the fluorogenic substrate H-Ala-AMC); 0.1 μM APN, 100 μM H-Ala-AMC, 100 mM Tris pH 7.2, Brij 35 0.0002% w/v, 37 °C, triplicate; inhibition competitive, Ki from the IC50 by the Cheng-Prusoff equation
[2] = target: aminopeptidase N on the surface of PC3 cells (human (endogenous in PC3)) (UniProt P15144)
Sequence of aminopeptidase N on the surface of PC3 cells (human (endogenous in PC3)) (P15144 whole entry): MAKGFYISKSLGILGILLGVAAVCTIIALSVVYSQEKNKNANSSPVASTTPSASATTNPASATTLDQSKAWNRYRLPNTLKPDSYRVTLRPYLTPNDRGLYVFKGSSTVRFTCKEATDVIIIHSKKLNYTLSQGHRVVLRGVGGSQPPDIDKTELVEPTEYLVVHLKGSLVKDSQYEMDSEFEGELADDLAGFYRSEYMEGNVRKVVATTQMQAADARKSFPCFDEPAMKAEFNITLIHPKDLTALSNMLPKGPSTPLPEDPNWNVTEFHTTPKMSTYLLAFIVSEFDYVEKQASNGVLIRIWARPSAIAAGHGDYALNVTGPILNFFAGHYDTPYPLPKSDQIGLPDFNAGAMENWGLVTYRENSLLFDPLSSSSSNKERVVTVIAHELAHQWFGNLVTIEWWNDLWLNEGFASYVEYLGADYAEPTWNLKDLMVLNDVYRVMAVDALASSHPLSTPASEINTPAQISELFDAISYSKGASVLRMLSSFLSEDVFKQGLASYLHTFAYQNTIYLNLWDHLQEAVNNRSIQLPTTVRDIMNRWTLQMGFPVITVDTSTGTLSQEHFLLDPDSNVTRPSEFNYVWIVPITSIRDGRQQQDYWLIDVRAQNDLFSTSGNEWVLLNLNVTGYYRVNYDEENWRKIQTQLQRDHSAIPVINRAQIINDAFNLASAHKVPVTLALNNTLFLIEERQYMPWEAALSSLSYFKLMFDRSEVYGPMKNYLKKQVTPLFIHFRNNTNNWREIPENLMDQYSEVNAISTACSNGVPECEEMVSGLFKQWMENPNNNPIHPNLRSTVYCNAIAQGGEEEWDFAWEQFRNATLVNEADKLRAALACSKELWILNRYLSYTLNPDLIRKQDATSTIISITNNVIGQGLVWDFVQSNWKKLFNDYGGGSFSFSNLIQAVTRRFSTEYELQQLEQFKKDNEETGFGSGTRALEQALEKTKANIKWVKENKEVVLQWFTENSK

chymotrypsin = experiment: enzyme inhibition assay (panel of proteases); cyc-LHSPW tested against a panel of cancer-associated proteases (Fig. 5A); conditions not given

IC50 [1]: > 500 µM
B1: RDLVD (peptide)
peptide: RDLVD

IC50 [1]: > 500 µM
B2: LDSTF (peptide)
peptide: LDSTF

Ki [1]: > 500 µM
B3: Suc-LHSPW (peptide)
peptide: Suc-LHSPW

Ki [1]: > 500 µM
B4: Cbz-HSPW (peptide)
peptide: Cbz-HSPW

IC50 [1]: > 500 µM
B5: AHSTF (peptide)
peptide: AHSTF

IC50 [1]: > 500 µM
B6: FSLSK (peptide)
peptide: FSLSK

Ki [1]: > 500 µM
B7: cyc-ADARK (peptide)
peptide: CADARKC
modifications: disulfide 1-7

Ki [1]: > 500 µM
B8: Suc-HSPW (peptide)
peptide: Suc-HSPW

Ki [1]: > 500 µM
B9: For-HSPW (peptide)
peptide: For-HSPW

Ki [1]: 121 µM
B10: cyc-LHSP (peptide)
peptide: CLHSPC
modifications: disulfide 1-6

tumor volume of PC3 xenografts at day 35, mice treated with 40 mg/kg cyc-LHSPW t.i.w. x4 (saline and cyc-NGR arms >1000 mm^3) [2]: 309 mm^3 | Ki (chymotrypsin): > 100 µM | Ki [1]: 24.7 µM
B11: cyc-LHSPW (peptide)
peptide: CLHSPWC
modifications: disulfide 1-7

IC50 [1]: 9.4 µM
B12: AHSPW (peptide)
peptide: AHSPW

IC50 [1]: > 500 µM
B13: DSTF (peptide)
peptide: DSTF

Ki [1]: > 500 µM
B14: For-LHSPW (peptide)
peptide: For-LHSPW

Ki [1]: > 500 µM
B15: Ac-LHSPW (peptide)
peptide: Ac-LHSPW

IC50 [1]: > 500 µM
B16: FYLRE (peptide)
peptide: FYLRE

IC50 [1]: > 500 µM
B17: ADARK (peptide)
peptide: ADARK

IC50 [1]: 115 µM
B18: EHSPW (peptide)
peptide: EHSPW

IC50 [1]: 43.3 µM
B19: HSPW (peptide)
peptide: HSPW

IC50 [1]: 10.6 µM
B20: LHSPW (peptide)
peptide: LHSPW

IC50 [1]: > 500 µM
B21: SKSGQ (peptide)
peptide: SKSGQ

Ki [1]: > 500 µM
B22: Ac-HSPW (peptide)
peptide: Ac-HSPW

IC50 [1]: > 500 µM
B23: EPKVA (peptide)
peptide: EPKVA

Ki [1]: > 500 µM
B24: Cbz-LHSPW (peptide)
peptide: Cbz-LHSPW

IC50 [1]: > 500 µM
B25: FDWWG (peptide)
peptide: FDWWG

Ki [1]: > 500 µM
B26: cyc-PHSPW (peptide)
peptide: CPHSPWC
modifications: disulfide 1-7

IC50 [1]: > 500 µM
B27: DARK (peptide)
peptide: DARK

Ki [1]: > 500 µM
B28: cyc-LHS (peptide)
peptide: CLHSC
modifications: disulfide 1-5

IC50 [1]: > 500 µM
B29: INDFL (peptide)
peptide: INDFL

IC50 [1]: 82.5 µM
B30: PHSPW (peptide)
peptide: PHSPW

IC50 [1]: > 500 µM
B31: AHLFN (peptide)
peptide: AHLFN

Ki [1]: > 500 µM
B32: cyc-AHSPW (peptide)
peptide: CAHSPWC
modifications: disulfide 1-7

Ki [1]: > 500 µM
B33: cyc-LDSTF (peptide)
peptide: CLDSTFC
modifications: disulfide 1-7

From PMC5431086, “The Rational Design of Therapeutic Peptides for Aminopeptidase N using a Substrate-Based Approach” (Scientific Reports, 2017)
